Laboratory results as given in patent publication US20170267766A1.

Experiments:
[1] = target: rhIGF-1R protein (R&D Systems, Cat No 391-GR) (human) (UniProt P08069); test: ELISA, coated rh IGF-1R, 5 ug/ml
[2] = target: rmIGF-1R protein (R&D Systems, cat No 6630-GR/Fc) (murine) (UniProt Q60751); test: ELISA, coated rm IGF-1R, 5 ug/ml
[3] = target: rhIR protein (R&D Systems, cat No 1544-IR/CF) (human) (UniProt P06213); test: ELISA, coated rh Insulin R, 5 ug/ml
rhIR protein (R&D Systems, cat No 1544-IR/CF) (human), sequence (P06213 other isoform, or with tags, fused parts or gaps limits assumed): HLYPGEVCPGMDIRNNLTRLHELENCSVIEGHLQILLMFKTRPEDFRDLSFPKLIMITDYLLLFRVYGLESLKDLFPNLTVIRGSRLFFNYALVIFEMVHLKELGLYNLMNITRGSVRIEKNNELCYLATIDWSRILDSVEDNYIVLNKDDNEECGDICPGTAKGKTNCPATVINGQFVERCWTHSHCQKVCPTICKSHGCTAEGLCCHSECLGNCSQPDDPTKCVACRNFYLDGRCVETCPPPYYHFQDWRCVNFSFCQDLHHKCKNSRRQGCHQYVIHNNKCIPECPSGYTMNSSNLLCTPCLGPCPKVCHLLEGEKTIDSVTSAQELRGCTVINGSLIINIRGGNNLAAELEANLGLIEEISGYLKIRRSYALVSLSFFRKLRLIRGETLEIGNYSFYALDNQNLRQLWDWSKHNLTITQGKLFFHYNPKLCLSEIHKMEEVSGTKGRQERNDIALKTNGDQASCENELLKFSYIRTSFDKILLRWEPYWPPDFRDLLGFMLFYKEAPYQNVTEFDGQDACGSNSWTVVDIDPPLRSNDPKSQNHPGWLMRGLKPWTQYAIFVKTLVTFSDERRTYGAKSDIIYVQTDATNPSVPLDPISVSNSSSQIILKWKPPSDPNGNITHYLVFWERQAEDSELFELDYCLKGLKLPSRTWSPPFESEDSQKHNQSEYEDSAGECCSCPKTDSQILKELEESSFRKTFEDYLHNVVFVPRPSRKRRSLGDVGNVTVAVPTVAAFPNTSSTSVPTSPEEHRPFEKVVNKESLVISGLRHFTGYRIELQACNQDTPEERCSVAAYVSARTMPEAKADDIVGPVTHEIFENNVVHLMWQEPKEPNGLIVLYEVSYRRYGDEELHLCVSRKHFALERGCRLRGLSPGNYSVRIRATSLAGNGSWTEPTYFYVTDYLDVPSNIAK

rmIGF-1R protein (R&D Systems, cat No 6630-GR/Fc) (murine), sequence (Q60751 31-936): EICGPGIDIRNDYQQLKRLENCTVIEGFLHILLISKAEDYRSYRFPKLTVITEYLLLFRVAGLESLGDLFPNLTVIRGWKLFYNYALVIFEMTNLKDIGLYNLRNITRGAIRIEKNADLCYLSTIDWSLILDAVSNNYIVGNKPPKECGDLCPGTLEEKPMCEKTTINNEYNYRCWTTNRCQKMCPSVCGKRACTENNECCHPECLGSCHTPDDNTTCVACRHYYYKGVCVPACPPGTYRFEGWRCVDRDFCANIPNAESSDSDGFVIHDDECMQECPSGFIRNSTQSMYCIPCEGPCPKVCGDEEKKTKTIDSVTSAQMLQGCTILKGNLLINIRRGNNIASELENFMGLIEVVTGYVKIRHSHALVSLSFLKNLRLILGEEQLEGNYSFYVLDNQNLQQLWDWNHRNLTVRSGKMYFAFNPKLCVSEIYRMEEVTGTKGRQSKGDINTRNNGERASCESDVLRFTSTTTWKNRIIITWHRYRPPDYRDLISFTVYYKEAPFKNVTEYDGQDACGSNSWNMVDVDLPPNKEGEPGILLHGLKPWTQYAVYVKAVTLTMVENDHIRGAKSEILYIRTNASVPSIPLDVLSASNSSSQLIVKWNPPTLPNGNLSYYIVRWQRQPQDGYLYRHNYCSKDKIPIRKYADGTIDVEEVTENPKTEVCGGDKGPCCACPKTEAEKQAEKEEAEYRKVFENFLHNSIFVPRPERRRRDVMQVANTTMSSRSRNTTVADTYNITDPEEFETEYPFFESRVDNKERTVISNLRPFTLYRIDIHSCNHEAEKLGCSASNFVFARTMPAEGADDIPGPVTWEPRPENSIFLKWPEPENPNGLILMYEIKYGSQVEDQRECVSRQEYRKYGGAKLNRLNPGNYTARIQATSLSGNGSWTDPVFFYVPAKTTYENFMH

Substance: mIgG1 (antibody)
- D.O 450 nm [1]: 0.093 D.O 450 nm
- D.O 450 nm [2]: 0.116 D.O 450 nm
- D.O 450 nm [3]: 0.127 D.O 450 nm
